± gives the standard deviation of the averaged measurements.

The record followed here is the supplement of paper PMC10724198.

What all share (assay): protein stability index of tFT-peptide fusion (C-terminal peptide) (PSI (0-1 scale)); higher = more stable (slower turnover)
For series [1], the system named is Saccharomyces cerevisiae. To be noted: temperature: 30 C. On the procedure:
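MPS profiling in S. cerevisiae of the yeast C-terminome library: the last 12 aa of each annotated ORF are fused to the C-terminus of a sfGFP-mCherry timer, after a GGGS linker. Cells are FACS-sorted into 8 mCherry/sfGFP bins and deep-sequenced. PSI runs from 0 (unstable) to 1 (stable); wild type and das1Δ backgrounds, two technical replicates each.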

Series [2] deals with Saccharomyces cerevisiae. On the procedure: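 MPS profiling in S. cerevisiae of the tFT-X12 degron library: putative degron peptides plus stable controls, 12 aa, fused to the C-terminus of a sfGFP-mCherry timer. Cells are FACS-sorted into 8 mCherry/sfGFP bins and deep-sequenced. PSI runs from 0 (unstable) to 1 (stable). Backgrounds are wild type, das1Δ and doa10Δ at 30 °C, and wild type, das1Δ, cdc34-1 and cdc53-1 at 37 °C; 2-3 technical replicates each.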

In series [3] the test system is Saccharomyces cerevisiae. To be noted: genetic background: wild type; temperature: 30 C.
The mark [4] stands for this setting: genetic background: das1 deletion.
The mark [5] stands for this setting: genetic background: cdc34-1, temperature: 37 C.
Where [6] appears, read: genetic background: cdc53-1, temperature: 37 C.
The mark [7] stands for this setting: genetic background: das1 deletion, temperature: 30 C.
The mark [8] stands for this setting: genetic background: das1 deletion, temperature: 37 C.
[9] abbreviates: genetic background: doa10 deletion, temperature: 30 C.
The mark [10] stands for this setting: genetic background: wild type, temperature: 30 C.
[11] abbreviates: genetic background: wild type, temperature: 37 C.

As for AAELRDISQCDV [OPI8 C-terminal 12 aa], the results for the protein stability index in the series on Saccharomyces cerevisiae [1] (setting [4]) and in the series on Saccharomyces cerevisiae [1] (genetic background: wild type) were 0.682 ± 0.024 and 0.69 ± 0.088, respectively.
For AANAEILSKINK [POX1 C-terminal 12 aa], the protein stability index is 0.713 ± 0.017 with Saccharomyces cerevisiae [1] (setting [4]) and 0.683 ± 0.0089 in the series with Saccharomyces cerevisiae [1] (genetic background: wild type).
Consider ADGNPLQALPQL [TOM40 C-terminal 12 aa], for which the protein stability index in the series on Saccharomyces cerevisiae [1] (setting [4]) turned out to be 0.7077 ± 0.0065; with Saccharomyces cerevisiae [1] (genetic background: wild type) it was 0.666 ± 0.024.
The corresponding values for AEETAVFTLPNV [GGA2 C-terminal 12 aa] are 0.7266 ± 0.0034 and 0.694 ± 0.0082.
Take AEIIDSLLEQIN [NSI1 C-terminal 12 aa]: the values for the protein stability index in the series with Saccharomyces cerevisiae [1] (setting [4]) and in the series with Saccharomyces cerevisiae [1] (genetic background: wild type) were 0.744 ± 0.019 and 0.6797 ± 0.0017, respectively.
Turning to AERFDNTEVLHL [STE13 C-terminal 12 aa], the protein stability index came to 0.7011 ± 0.0037 in the series with Saccharomyces cerevisiae [1] (setting [4]) and 0.689 ± 0.035 in the series on Saccharomyces cerevisiae [1] (genetic background: wild type).
The corresponding values for AGADNTARLWTT [ERB1 C-terminal 12 aa] are 0.722 ± 0.014 and 0.736 ± 0.056.
The corresponding values for AGTDKSQRCAIM [GIS4 C-terminal 12 aa] are 0.758 ± 0.018 and 0.695 ± 0.056.
Regarding AGVNSARGVLRI [SFT2 C-terminal 12 aa], the protein stability index was found to be 0.6898 ± 0.0045 in the series with Saccharomyces cerevisiae [1] (setting [4]) and 0.71 ± 0.023 in the series on Saccharomyces cerevisiae [1] (genetic background: wild type).
In the case of VPGPSPPRFTQR, the protein stability index in the series with Saccharomyces cerevisiae [2] (setting [5]) turned out to be 0.7134 ± 0.0016; in the series with Saccharomyces cerevisiae [2] (setting [6]) it was 0.762 ± 0.016; with Saccharomyces cerevisiae [2] (setting [7]), 0.6584 ± 0.0019; in the series on Saccharomyces cerevisiae [2] (setting [8]), 0.741 ± 0.0094; in the series with Saccharomyces cerevisiae [2] (setting [9]), 0.644 ± 0.028; with Saccharomyces cerevisiae [2] (setting [10]), 0.656 ± 0.011. For the same sequence, the protein stability index turned out to be 0.692 ± 0.025 in the series on Saccharomyces cerevisiae [2] (setting [11]) and 0.559 ± 0.1 in the series on Saccharomyces cerevisiae [3].
Take VPVWHTVKLYCF: the protein stability index worked out at 0.342 ± 0.0081 with Saccharomyces cerevisiae [2] (setting [5]); 0.439 ± 0.0077 with Saccharomyces cerevisiae [2] (setting [6]); 0.345 ± 0.038 in the series on Saccharomyces cerevisiae [2] (setting [7]); 0.4934 ± 0.0021 in the series on Saccharomyces cerevisiae [2] (setting [8]); 0.073 ± 0.00079 with Saccharomyces cerevisiae [2] (setting [9]); 0.088 ± 0.017 with Saccharomyces cerevisiae [2] (setting [10]). For the same sequence, the protein stability index turned out to be 0.0851 ± 0.018 in the series with Saccharomyces cerevisiae [2] (setting [11]) and 0.159 ± 0.061 in the series with Saccharomyces cerevisiae [3].
As for VPWSKIAARLII, the protein stability index with Saccharomyces cerevisiae [2] (setting [5]) came out at 0.6593 ± 0.0029; in the series with Saccharomyces cerevisiae [2] (setting [6]) it was 0.706 ± 0.011; in the series with Saccharomyces cerevisiae [2] (setting [7]), 0.618 ± 0.02; in the series on Saccharomyces cerevisiae [2] (setting [8]), 0.734 ± 0.022; in the series with Saccharomyces cerevisiae [2] (setting [9]), 0.227 ± 0.015; with Saccharomyces cerevisiae [2] (setting [10]) it was 0.315 ± 0.054. Further, the protein stability index with Saccharomyces cerevisiae [2] (setting [11]) is 0.5015 ± 0.0036; in the series on Saccharomyces cerevisiae [3], 0.446 ± 0.068.
On to VRMMYSVQVWCG, for which the protein stability index in the series on Saccharomyces cerevisiae [2] (setting [5]) was 0.0466 ± 0.011; with Saccharomyces cerevisiae [2] (setting [6]), 0.138 ± 0.03; in the series on Saccharomyces cerevisiae [2] (setting [7]), 0.0633 ± 0.029; in the series on Saccharomyces cerevisiae [2] (setting [8]) it was 0.165 ± 0.012; in the series on Saccharomyces cerevisiae [2] (setting [9]) it was 0.02927 ± 0.00015; in the series with Saccharomyces cerevisiae [2] (setting [10]), 0.0222 ± 0.0046. For the same sequence, the results for the protein stability index with Saccharomyces cerevisiae [2] (setting [11]) and in the series with Saccharomyces cerevisiae [3] were 0.0439 ± 0.0023 and 0.0363 ± 0.036, respectively.
Regarding VRVWLLACASKG, the protein stability index came out at 0.3332 ± 0.00082 in the series on Saccharomyces cerevisiae [2] (setting [5]); 0.423 ± 0.026 in the series with Saccharomyces cerevisiae [2] (setting [6]); 0.236 ± 0.0066 with Saccharomyces cerevisiae [2] (setting [7]); 0.378 ± 0.019 in the series with Saccharomyces cerevisiae [2] (setting [8]); 0.228 ± 0.037 in the series on Saccharomyces cerevisiae [2] (setting [9]); 0.24 ± 0.015 with Saccharomyces cerevisiae [2] (setting [10]). For the same sequence, the protein stability index was found to be 0.3609 ± 0.0016 in the series on Saccharomyces cerevisiae [2] (setting [11]) and 0.281 ± 0.014 in the series with Saccharomyces cerevisiae [3].
Regarding VSDLYLSLVRVV, the protein stability index in the series with Saccharomyces cerevisiae [2] (setting [5]) worked out at 0.59 ± 0.032; in the series with Saccharomyces cerevisiae [2] (setting [6]), 0.593 ± 0.011; in the series with Saccharomyces cerevisiae [2] (setting [7]), 0.46 ± 0.034; in the series on Saccharomyces cerevisiae [2] (setting [8]), 0.604 ± 0.009; in the series with Saccharomyces cerevisiae [2] (setting [9]), 0.256 ± 0.0031; in the series with Saccharomyces cerevisiae [2] (setting [10]) it was 0.31 ± 0.029. Further, the protein stability index in the series with Saccharomyces cerevisiae [2] (setting [11]) turned out to be 0.492 ± 0.017; with Saccharomyces cerevisiae [3] it was 0.45 ± 0.078.
Turning to VSGVLRSMVRLQ, the protein stability index in the series with Saccharomyces cerevisiae [2] (setting [5]) was determined as 0.641 ± 0.044; in the series on Saccharomyces cerevisiae [2] (setting [6]), 0.7477 ± 0.0057; in the series on Saccharomyces cerevisiae [2] (setting [7]), 0.66 ± 0.034; in the series on Saccharomyces cerevisiae [2] (setting [8]), 0.736 ± 0.032; in the series on Saccharomyces cerevisiae [2] (setting [9]), 0.266 ± 0.017; with Saccharomyces cerevisiae [2] (setting [10]) it was 0.324 ± 0.031. For the same sequence, the protein stability index worked out at 0.58 ± 0.03 in the series with Saccharomyces cerevisiae [2] (setting [11]) and 0.453 ± 0.011 in the series on Saccharomyces cerevisiae [3].
As to VSRAVCLWRRLL, the protein stability index in the series on Saccharomyces cerevisiae [2] (setting [5]) stood at 0.479 ± 0.006; in the series on Saccharomyces cerevisiae [2] (setting [6]), 0.68 ± 0.061; with Saccharomyces cerevisiae [2] (setting [7]) it was 0.618 ± 0.0096; in the series on Saccharomyces cerevisiae [2] (setting [8]), 0.7305 ± 0.0018; in the series on Saccharomyces cerevisiae [2] (setting [9]), 0.0796 ± 0.0058; in the series with Saccharomyces cerevisiae [2] (setting [10]), 0.104 ± 0.036. The protein stability index in the series with Saccharomyces cerevisiae [2] (setting [11]) amounted to 0.124 ± 0.026; in the series on Saccharomyces cerevisiae [3] it was 0.0882 ± 0.088.
VSSFLLPFCLLF: the protein stability index with Saccharomyces cerevisiae [2] (setting [5]) was 0.65 ± 0.025; in the series on Saccharomyces cerevisiae [2] (setting [6]), 0.689 ± 0.029; in the series on Saccharomyces cerevisiae [2] (setting [7]) it was 0.645 ± 0.0076; in the series with Saccharomyces cerevisiae [2] (setting [8]) it was 0.714 ± 0.025; in the series with Saccharomyces cerevisiae [2] (setting [9]), 0.654 ± 0.021; with Saccharomyces cerevisiae [2] (setting [10]), 0.641 ± 0.016. Also, the protein stability index in the series with Saccharomyces cerevisiae [2] (setting [11]) was found to be 0.6753 ± 0.0013; in the series with Saccharomyces cerevisiae [3], 0.51 ± 0.1.
As for VSWSVSALIYLK, the protein stability index is 0.169 ± 0.017 with Saccharomyces cerevisiae [2] (setting [5]); 0.1 ± 0.026 in the series with Saccharomyces cerevisiae [2] (setting [6]); 0.233 ± 0.039 in the series on Saccharomyces cerevisiae [2] (setting [7]); 0.319 ± 0.014 in the series on Saccharomyces cerevisiae [2] (setting [8]); 0.572 ± 0.01 in the series on Saccharomyces cerevisiae [2] (setting [9]); 0.277 ± 0.034 in the series on Saccharomyces cerevisiae [2] (setting [10]). The protein stability index is 0.295 ± 0.015 in the series with Saccharomyces cerevisiae [2] (setting [11]) and 0.35 ± 0.0075 in the series with Saccharomyces cerevisiae [3].
On to VTLLCRFFMLVF, for which the protein stability index came to 0.454 ± 0.01 in the series with Saccharomyces cerevisiae [2] (setting [5]); 0.5149 ± 0.00071 in the series on Saccharomyces cerevisiae [2] (setting [6]); 0.402 ± 0.025 in the series with Saccharomyces cerevisiae [2] (setting [7]); 0.543 ± 0.01 in the series with Saccharomyces cerevisiae [2] (setting [8]); 0.273 ± 0.014 in the series on Saccharomyces cerevisiae [2] (setting [9]); 0.289 ± 0.014 in the series with Saccharomyces cerevisiae [2] (setting [10]). Besides, the protein stability index was 0.428 ± 0.017 with Saccharomyces cerevisiae [2] (setting [11]) and 0.369 ± 0.021 with Saccharomyces cerevisiae [3].
Regarding VVGFVFSCWWSW, the protein stability index in the series with Saccharomyces cerevisiae [2] (setting [5]) came out at 0.433 ± 0.031; in the series with Saccharomyces cerevisiae [2] (setting [6]), 0.4646 ± 0.00097; with Saccharomyces cerevisiae [2] (setting [7]) it was 0.367 ± 0.039; in the series on Saccharomyces cerevisiae [2] (setting [8]) it was 0.506 ± 0.013; in the series on Saccharomyces cerevisiae [2] (setting [9]) it was 0.365 ± 0.015; with Saccharomyces cerevisiae [2] (setting [10]), 0.372 ± 0.045. The protein stability index in the series on Saccharomyces cerevisiae [2] (setting [11]) is 0.46 ± 0.014; in the series on Saccharomyces cerevisiae [3] it was 0.5003 ± 0.0031.
For VVGVLLLYLNPF, the protein stability index in the series with Saccharomyces cerevisiae [2] (setting [5]) is 0.431 ± 0.0048; with Saccharomyces cerevisiae [2] (setting [6]), 0.5071 ± 0.0037; in the series on Saccharomyces cerevisiae [2] (setting [7]), 0.351 ± 0.025; in the series on Saccharomyces cerevisiae [2] (setting [8]), 0.572 ± 0.023; with Saccharomyces cerevisiae [2] (setting [9]) it was 0.3188 ± 0.0024; in the series with Saccharomyces cerevisiae [2] (setting [10]), 0.336 ± 0.039. For the same sequence, the figures for the protein stability index in the series on Saccharomyces cerevisiae [2] (setting [11]) and with Saccharomyces cerevisiae [3] were 0.525 ± 0.0095 and 0.4677 ± 0.0038, respectively.
For the sequence VVLWWWVVARDL, the protein stability index in the series with Saccharomyces cerevisiae [2] (setting [5]) stood at 0.414 ± 0.019; with Saccharomyces cerevisiae [2] (setting [6]) it was 0.495 ± 0.038; with Saccharomyces cerevisiae [2] (setting [7]) it was 0.402 ± 0.03; in the series on Saccharomyces cerevisiae [2] (setting [8]), 0.551 ± 0.031; in the series with Saccharomyces cerevisiae [2] (setting [9]), 0.332 ± 0.026; in the series on Saccharomyces cerevisiae [2] (setting [10]) it was 0.339 ± 0.03. The protein stability index with Saccharomyces cerevisiae [2] (setting [11]) came to 0.514 ± 0.01; in the series with Saccharomyces cerevisiae [3], 0.44 ± 0.028.
